Assay [1] addresses pUL53 hook peptide (Human cytomegalovirus) (UniProt P16794). As to conditions: cited from earlier work.
For assay [2], the target named is pUL50 (Human cytomegalovirus) (UniProt P16791). Put plainly: competition with pUL50-pUL53 interaction. As to conditions: cited from earlier work.
The next assay deals with T1, BFRF1 (Epstein-Barr virus, UniProt P03185).
T1 chain: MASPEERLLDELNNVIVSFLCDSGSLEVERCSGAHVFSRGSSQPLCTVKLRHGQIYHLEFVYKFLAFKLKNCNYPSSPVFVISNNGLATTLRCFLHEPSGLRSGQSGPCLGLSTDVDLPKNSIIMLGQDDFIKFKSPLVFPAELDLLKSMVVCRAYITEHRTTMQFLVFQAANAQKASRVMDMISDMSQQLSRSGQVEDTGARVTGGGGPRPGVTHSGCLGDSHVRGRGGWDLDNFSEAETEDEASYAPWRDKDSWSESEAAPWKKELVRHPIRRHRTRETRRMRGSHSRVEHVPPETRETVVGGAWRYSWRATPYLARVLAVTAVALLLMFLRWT
The assay can be described thus: fluorescence polarization. For orientation: In fluorescence polarisation assays a small probe gives low polarisation when free and higher when bound to something large.

Assay [3] addresses T2, pUL50 (Human cytomegalovirus, UniProt P16791).
T2 chain: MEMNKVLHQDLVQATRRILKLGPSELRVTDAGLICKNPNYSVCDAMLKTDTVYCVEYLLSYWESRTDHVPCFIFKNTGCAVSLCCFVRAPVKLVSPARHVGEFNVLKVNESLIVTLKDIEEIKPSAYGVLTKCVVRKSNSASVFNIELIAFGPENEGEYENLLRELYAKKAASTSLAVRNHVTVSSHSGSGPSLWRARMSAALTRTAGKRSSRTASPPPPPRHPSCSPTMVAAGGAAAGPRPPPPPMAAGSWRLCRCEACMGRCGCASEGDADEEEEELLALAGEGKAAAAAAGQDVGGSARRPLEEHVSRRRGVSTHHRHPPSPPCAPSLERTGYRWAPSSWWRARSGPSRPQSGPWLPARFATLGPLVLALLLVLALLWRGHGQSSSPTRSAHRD
The assay can be described thus: competition with pUL50-pUL53 interaction.

Assay [4] has as its target T2, pUL50. The assay can be described thus: fluorescence polarization.

Sequence of pUL53 hook peptide (Human cytomegalovirus) (P16794 whole entry): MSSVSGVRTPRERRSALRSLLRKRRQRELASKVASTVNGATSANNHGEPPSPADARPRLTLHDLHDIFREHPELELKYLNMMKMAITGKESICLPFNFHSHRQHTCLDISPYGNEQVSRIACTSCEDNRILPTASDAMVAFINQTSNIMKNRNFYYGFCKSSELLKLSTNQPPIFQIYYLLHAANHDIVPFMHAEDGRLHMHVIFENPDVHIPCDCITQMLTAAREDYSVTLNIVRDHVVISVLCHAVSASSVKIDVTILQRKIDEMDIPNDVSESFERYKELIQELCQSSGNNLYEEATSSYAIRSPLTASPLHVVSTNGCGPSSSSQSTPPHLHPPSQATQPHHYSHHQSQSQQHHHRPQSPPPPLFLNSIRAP

A word on the Kd: it is a measure of binding affinity in units of concentration. On to pUL50 (from UniProt P16791), for which, in assay [1], the dissociation constant Kd is 120 nM. Broadly, the IC50 is the concentration that gives 50% inhibition. In the case of pUL53 hook peptide, the IC50 in assay [2] is 110 nM.

B1: BFLF2 hook peptide 78-110 (peptide)
chain: DRSHFSLRDFFRGISANFELGKDFLREMNTPIH
B1 returned a dissociation constant (Kd) with BFRF1 of 117 nM.

B2: pUL53 hook peptide (peptide)
chain: LTLHDLHDIFREHPELELKYLNMMKMAIT
As for B2, the half-maximal inhibitory concentration (IC50) in the assay with pUL50 [3] was 50 nM.

B3: pUL53 hook peptide 59-87 (peptide)
chain: LTLHDLHDIFREHPELELKYLNMMKMAIT
On to B3, for which, in the assay with pUL50 [4], the dissociation constant Kd was 120 nM.
